# Experimental data from patent publication US8562982B2, “Use of platelet activating factor acetylhydrolase as a biomarker for anaphylaxis” (Allertech Laboratory Inc., priority 2007, dated 2013).
# B1: PAF-AH: the enzyme that degrades PAF; endogenous serum enzyme measured as biomarker (protein, UniProt Q13093 22-441, looked up)
# Platelet-activating factor …: FDWQYINPVAHMKSSAWVNKIQVLMAAASFGQTKIPRGNGPYSVGCTDLMFDHTNKGTFLRLYYPSQDNDRLDTLWIPNKEYFWGLSKFLGTHWLMGNILRLLFGSMTTPANWNSPLRPGEKYPLVVFSHGLGAFRTLYSAIGIDLASHGFIVAAVEHRDRSASATYYFKDQSAAEIGDKSWLYLRTLKQEEETHIRNEQVRQRAKECSQALSLILDIDHGKPVKNALDLKFDMEQLKDSIDREKIAVIGHSFGGATVIQTLSEDQRFRCGIALDAWMFPLGDEVYSRIPQPLFFINSEYFQYPANIIKMKKCYSPDKERKMITIRGSVHQNFADFTFATGKIIGHMLKLKGDIDSNVAIDLSNKASLAFLQKHLGLHKDFDQWDCLIEGDDENLIPGTNINTTNQHIMLQNSSGIEKYN
# Assay: Stability of PAF-AH in serum (storage temperatures, freeze-thaw cycles)
# Format: physicochemical, human
# Description: Sera may have been stored under differing conditions, subjecting PAF-AH to thermal stresses. In order to evaluate the effect of handling and storage conditions on PAF-AH activity, serum samples were subjected to a range of temperatures and freeze-thaw cycles and assayed for residual PAF-AH activity as detailed below.
# The final concentration of the substrate was 160 μM. […] The reaction was stopped in an ice bath.
# Serum samples from individuals with fatal peanut anaphylaxis and from various control groups may have been stored under differing conditions, subjecting PAF-AH to thermal stresses. In order to evaluate the effect of handling and storage conditions on PAF-AH activity, sera were stored at different temperatures. The stability of PAF-AH stored at 4° C. and 23° C. and subjected to repeated cycles of freeze-thawing was assessed. PAF-AH levels were measured at specified times following storage at 23° C. (2, 4, 8, 24 and 48 hours) and at 4° C. (5 and 10 days) and following 5 sequential cycles of freezing and thawing. To assess the stability of PAF-AH to long term storage, serum samples stored at −70° C. since 1998 were re-assayed for PAF-AH and compared to results of assay results prior to storage.
molecule,measurement,setting,value
B1,residual PAF-AH activity,"6 fresh sera, 5 freeze-thaw cycles, relative to fresh sera",90-105%
same,mean PAF-AH activity,"fresh sera in 1998 (n=25), before storage",27.04 ± 9.92 nmol/mL/min
same,mean PAF-AH activity,same sera after eight years at −70° C. (p=0.1047),22.98 ± 7.23 nmol/mL/min
same,retained initial PAF-AH activity,sera stored at 4° C. for 10 days,96-102%
same,retained PAF-AH activity of fresh sera,sera stored at 23° C. for up to 48 hours,84-92%
